Source: PMC7102968, “The complex formed between a synthetic RNA aptamer and the transcription repressor TetR is a structural and functional twin of the operator DNA–TetR regulator complex” (Nucleic Acids Research, 2020)

Molecular target: the molecule itself
Assay: crystal structure; TetR co-crystallised with RNA aptamer K1 (2.7 Å) or K2 (2.9 Å); complex purified by gel filtration in 20 mM Tris-HCl pH 8.0, 150 mM NaCl, 5 mM MgCl2; sitting-drop vapor diffusion at 20°C

B1: TetR type BD' (TetR (B1–B187:D188–D208; C68S, C88N, C121T and C144S)) (natural protein)
chain: MSRLDKSKVINSALELLNEVGIEGLTTRKLAQKLGVEQPTLYWHVKNKRALLDALAIEMLDRHHTHFSPLEGESWQDFLRNNAKSFRNALLSHRDGAKVHLGTRPTEKQYETLENQLAFLTQQGFSLENALYALSAVGHFTLGSVLEDQEHQVAKEERETPTTDSMPPLLRQAIELFDHQGAEPAFLHGLESLIRGFEVQLTALLQIV
notes: TetR class B, residues 1-187 of the cysteine-free chimeric TetR type BD'; TetR class D, residues 188-208 of the chimeric TetR type BD'; homodimer; also called Tet repressor; wild-type TetR; source: purified
stoichiometry N: 2
